Test results reported in patent US20230045262A1 (Hoffmann-La Roche, published 2023).
Like-named read-outs stand apart in the source and are kept apart here. One block for each binder: values may come before it.

Key:
[1] = biological target: T1, human 4-1BB on cells (activated human T cells; HeLa-hu4-1BB-NFκB-luc clone 26; Jurkat-hu4-1BB-NFκB-luc2) (human, UniProt Q07011 24-255); test: cell-based or functional assay
[2] = biological target: T1, human 4-1BB on cells (activated human T …); test: flow cytometry on Jurkat-hu4-1BB-NFκB-luc2 cells
[3] = biological target: T1, human 4-1BB on cells (activated human T …); test: cell-based or functional assay; remark: listed apart in the source
[4] = biological target: T1, human 4-1BB on cells (activated human T …); test: cell-based or functional assay; remark: listed apart in the source
[5] = biological target: T2, human FAP on cells (WM-266-4; NIH/3T3-huFAP clone 19) (human, UniProt Q12884 1-760); test: flow cytometry on WM-266-4 cells
T2 construct: transfected in NIH/3T3-huFAP clone 19

[6] = biological target: T2, human FAP on cells (WM-266-4; …); test: flow cytometry on NIH/3T3-huFAP clone 19 cells
[7] = biological target: T1, human 4-1BB on cells (activated human T …); test: flow cytometry on activated human CD4+ T cells, PE anti-human Fc secondary
[8] = biological target: T1, human 4-1BB on cells (activated human T …); test: flow cytometry on activated human CD8+ T cells, PE anti-human Fc secondary
[9] = biological target: T3, hu4-1BB-SNAP fusion on Hek293 EBNA cells (human, UniProt Q07011 24-255, labeled with the FRET donor Terbium); test: TagLite FRET competition on hu4-1BB-SNAP cells; competitor 0.6 nM d2-labelled 20H4.9 IgG; 4 h
T3 construct: also called hu 4-1BB (TagLite); not shown: SNAP tag

[10] = biological target: T3, hu4-1BB-SNAP fusion on Hek293 EBNA cells; test: as above; remark: listed apart in the source

EC50 of Jurkat-hu4-1BB-NFκB-luc2 reporter cell line activation curves in the presence of CEA-expressing MKN45 tumor cells [1]: 0.16 nM
EC50 [2]: 0.06 nM
B1: 2+1 4-1BB (20H4.9)/CEA(A5B7P) human IgG1 PGLALA, (G4S)4, hole-VH (bispecific antibody)
heavy 1: QVQLQQWGAGLLKPSETLSLTCAVYGGSFSGYYWSWIRQSPEKGLEWIGEINHGGYVTYNPSLESRVTISVDTSKNQFSLKLSSVTAADTAVYYCARDYGPGNYDWYFDLWGRGTLVTVSSASTKGPSVFPLAPSSKSTSGGTAALGCLVKDYFPEPVTVSWNSGALTSGVHTFPAVLQSSGLYSLSSVVTVPSSSLGTQTYICNVNHKPSNTKVDKKVEPKSCDKTHTCPPCPAPEAAGGPSVFLFPPKPKDTLMISRTPEVTCVVVDVSHEDPEVKFNWYVDGVEVHNAKTKPREEQYNSTYRVVSVLTVLHQDWLNGKEYKCKVSNKALGAPIEKTISKAKGQPREPQVCTLPPSRDELTKNQVSLSCAVKGFYPSDIAVEWESNGQPENNYKTTPPVLDSDGSFFLVSKLTVDKSRWQQGNVFSCSVMHEALHNHYTQKSLSLSPGGGGGSGGGGSGGGGSGGGGSEVKLVESGGGLVQPGGSLRLSCATSGFTFTDYYMNWVRQPPGKALEWLGFIGNKANGYTTEYSASVKGRFTISRDKSQSILYLQMNTLRAEDSATYYCTRDRGLRFYFDYWGQGTTLTVSS
heavy 2: not shown
light: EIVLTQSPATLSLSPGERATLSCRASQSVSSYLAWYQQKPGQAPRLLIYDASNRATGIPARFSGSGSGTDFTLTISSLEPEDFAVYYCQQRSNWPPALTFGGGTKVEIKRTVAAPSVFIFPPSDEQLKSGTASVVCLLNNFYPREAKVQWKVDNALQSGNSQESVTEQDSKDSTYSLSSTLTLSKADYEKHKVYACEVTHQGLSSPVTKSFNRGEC
notes: also called 4-1BB (20H4.9)×CEA (A5B7P) 2+1; C-terminal VH/VL fusion of the A5B7P clone

EC50 of activation of the NFκB signaling pathway (luciferase, HeLa-hu4-1BB-NFκB-luc), no FAP+ cells [3]: 0.73 nM
EC50 of activation of the NFκB signaling pathway (luciferase, HeLa-hu4-1BB-NFκB-luc), with 3T3-huFAP cells [3]: 0.07 nM
EC50 of activation of the NFκB signaling pathway (luciferase, HeLa-hu4-1BB-NFκB-luc), with WM-266-4 cells [3]: 0.08 nM
EC50 of human PBMC activation curves, % CD25+ CD4 (with NIH/3T3-huFAP cells and anti-CD3) [4]: 0.005 nM
EC50 of human PBMC activation curves, % CD25+ CD8 (with NIH/3T3-huFAP cells and anti-CD3) [4]: 0.02 nM
EC50 of human PBMC activation curves, % proliferating CD4 (with NIH/3T3-huFAP cells and anti-CD3) [4]: 0.004 nM
EC50 of human PBMC activation curves, % proliferating CD8 (with NIH/3T3-huFAP cells and anti-CD3) [4]: 0.001 nM
EC50 [5]: 0.7 nM
EC50 [6]: 1.7 nM
EC50 [7]: 0.1 nM
EC50 [8]: 0.1 nM
EC50 [9]: 1.6 nM
EC50 interval [9]: 1.2 to 2.3 nM
B2: 4-1BB (20H4.9)/FAP (4B9) P329GLALA IgG1 2+1 (hole-VH) (bispecific antibody)
heavy 1: QVQLQQWGAGLLKPSETLSLTCAVYGGSFSGYYWSWIRQSPEKGLEWIGEINHGGYVTYNPSLESRVTISVDTSKNQFSLKLSSVTAADTAVYYCARDYGPGNYDWYFDLWGRGTLVTVSSASTKGPSVFPLAPSSKSTSGGTAALGCLVKDYFPEPVTVSWNSGALTSGVHTFPAVLQSSGLYSLSSVVTVPSSSLGTQTYICNVNHKPSNTKVDKKVEPKSCDKTHTCPPCPAPEAAGGPSVFLFPPKPKDTLMISRTPEVTCVVVDVSHEDPEVKFNWYVDGVEVHNAKTKPREEQYNSTYRVVSVLTVLHQDWLNGKEYKCKVSNKALGAPIEKTISKAKGQPREPQVCTLPPSRDELTKNQVSLSCAVKGFYPSDIAVEWESNGQPENNYKTTPPVLDSDGSFFLVSKLTVDKSRWQQGNVFSCSVMHEALHNHYTQKSLSLSPGGGGGSGGGGSGGGGSGGGGSEVQLLESGGGLVQPGGSLRLSCAASGFTFSSYAMSWVRQAPGKGLEWVSAIIGSGASTYYADSVKGRFTISRDNSKNTLYLQMNSLRAEDTAVYYCAKGWFGGFNYWGQGTLVTVSS
heavy 2: not shown
light: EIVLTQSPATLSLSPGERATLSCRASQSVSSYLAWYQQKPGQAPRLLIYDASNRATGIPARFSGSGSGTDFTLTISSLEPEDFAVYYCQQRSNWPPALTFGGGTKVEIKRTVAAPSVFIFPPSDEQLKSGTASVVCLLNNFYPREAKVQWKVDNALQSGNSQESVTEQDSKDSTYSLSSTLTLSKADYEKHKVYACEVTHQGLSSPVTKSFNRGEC
notes: also called 4-1BB (20H4.9)×FAP (4B9) 2+1; 20H4.9/4B9 2+1

EC50 of Jurkat-hu4-1BB-NFκB-luc2 reporter cell line activation curves in the presence of CEA-expressing MKN45 tumor cells [1]: 0.19 nM
EC50 [2]: 0.07 nM
B3: 2+1 4-1BB (20H4.9)/CEA(T84.66-LCHA) human IgG1 PGLALA, (G4S)4 hole-VH (bispecific antibody)
heavy 1: QVQLQQWGAGLLKPSETLSLTCAVYGGSFSGYYWSWIRQSPEKGLEWIGEINHGGYVTYNPSLESRVTISVDTSKNQFSLKLSSVTAADTAVYYCARDYGPGNYDWYFDLWGRGTLVTVSSASTKGPSVFPLAPSSKSTSGGTAALGCLVKDYFPEPVTVSWNSGALTSGVHTFPAVLQSSGLYSLSSVVTVPSSSLGTQTYICNVNHKPSNTKVDKKVEPKSCDKTHTCPPCPAPEAAGGPSVFLFPPKPKDTLMISRTPEVTCVVVDVSHEDPEVKFNWYVDGVEVHNAKTKPREEQYNSTYRVVSVLTVLHQDWLNGKEYKCKVSNKALGAPIEKTISKAKGQPREPQVCTLPPSRDELTKNQVSLSCAVKGFYPSDIAVEWESNGQPENNYKTTPPVLDSDGSFFLVSKLTVDKSRWQQGNVFSCSVMHEALHNHYTQKSLSLSPGGGGGSGGGGSGGGGSGGGGSQVQLVQSGAEVKKPGSSVKVSCKASGFNIKDTYMHWVRQAPGQGLEWMGRIDPANGNSKYVPKFQGRVTITADTSTSTAYMELSSLRSEDTAVYYCAPFGYYVSDYAMAYWGQGTLVTVSS
heavy 2: not shown
light: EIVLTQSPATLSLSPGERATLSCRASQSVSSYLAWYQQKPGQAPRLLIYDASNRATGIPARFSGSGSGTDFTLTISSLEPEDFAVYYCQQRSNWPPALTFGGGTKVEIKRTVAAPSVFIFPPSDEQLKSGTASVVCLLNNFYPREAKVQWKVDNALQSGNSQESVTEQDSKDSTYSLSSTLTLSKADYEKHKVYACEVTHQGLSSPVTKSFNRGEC
notes: also called 4-1BB (20H4.9)×CEA (T84.66-LCHA) 2+1

EC50 of activation of the NFκB signaling pathway (luciferase, HeLa-hu4-1BB-NFκB-luc), no FAP+ cells [3]: 0.13 nM
EC50 of activation of the NFκB signaling pathway (luciferase, HeLa-hu4-1BB-NFκB-luc), with 3T3-huFAP cells [3]: 0.04 nM
EC50 of activation of the NFκB signaling pathway (luciferase, HeLa-hu4-1BB-NFκB-luc), with WM-266-4 cells [3]: 0.05 nM
EC50 of human PBMC activation curves, % CD25+ CD4 (with NIH/3T3-huFAP cells and anti-CD3) [4]: 0.006 nM
EC50 of human PBMC activation curves, % CD25+ CD8 (with NIH/3T3-huFAP cells and anti-CD3) [4]: 0.009 nM
EC50 of human PBMC activation curves, % proliferating CD4 (with NIH/3T3-huFAP cells and anti-CD3) [4]: 0.003 nM
EC50 of human PBMC activation curves, % proliferating CD8 (with NIH/3T3-huFAP cells and anti-CD3) [4]: 0.002 nM
EC50 [5]: 1.6 nM
EC50 [6]: 2 nM
EC50 [7]: 0.1 nM
EC50 [8]: 0.1 nM
EC50 [10]: 0.5 nM
EC50 interval [10]: 0.3 to 0.7 nM
B4: 4-1BB (20H4.9)/FAP (4B9) P329GLALA IgG1 4+1 (hole-VH) (bispecific antibody)
heavy 1: QVQLQQWGAGLLKPSETLSLTCAVYGGSFSGYYWSWIRQSPEKGLEWIGEINHGGYVTYNPSLESRVTISVDTSKNQFSLKLSSVTAADTAVYYCARDYGPGNYDWYFDLWGRGTLVTVSSASTKGPSVFPLAPSSKSTSGGTAALGCLVKDYFPEPVTVSWNSGALTSGVHTFPAVLQSSGLYSLSSVVTVPSSSLGTQTYICNVNHKPSNTKVDKKVEPKSCDGGGGSGGGGSQVQLQQWGAGLLKPSETLSLTCAVYGGSFSGYYWSWIRQSPEKGLEWIGEINHGGYVTYNPSLESRVTISVDTSKNQFSLKLSSVTAADTAVYYCARDYGPGNYDWYFDLWGRGTLVTVSSASTKGPSVFPLAPSSKSTSGGTAALGCLVKDYFPEPVTVSWNSGALTSGVHTFPAVLQSSGLYSLSSVVTVPSSSLGTQTYICNVNHKPSNTKVDKKVEPKSCDKTHTCPPCPAPEAAGGPSVFLFPPKPKDTLMISRTPEVTCVVVDVSHEDPEVKFNWYVDGVEVHNAKTKPREEQYNSTYRVVSVLTVLHQDWLNGKEYKCKVSNKALGAPIEKTISKAKGQPREPQVCTLPPSRDELTKNQVSLSCAVKGFYPSDIAVEWESNGQPENNYKTTPPVLDSDGSFFLVSKLTVDKSRWQQGNVFSCSVMHEALHNHYTQKSLSLSPGGGGGSGGGGSGGGGSGGGGSEVQLLESGGGLVQPGGSLRLSCAASGFTFSSYAMSWVRQAPGKGLEWVSAIIGSGASTYYADSVKGRFTISRDNSKNTLYLQMNSLRAEDTAVYYCAKGWFGGFNYWGQGTLVTVSS
heavy 2: not shown
light: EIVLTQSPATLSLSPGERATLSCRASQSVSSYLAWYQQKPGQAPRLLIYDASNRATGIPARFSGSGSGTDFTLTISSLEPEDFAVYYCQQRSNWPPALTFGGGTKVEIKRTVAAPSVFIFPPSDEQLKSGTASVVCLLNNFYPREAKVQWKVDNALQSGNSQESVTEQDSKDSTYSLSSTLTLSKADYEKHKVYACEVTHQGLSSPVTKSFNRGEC
notes: also called 4-1BB (20H4.9)×FAP (4B9) 4+1; 20H4.9/4B9 4+1

EC50 of Jurkat-hu4-1BB-NFκB-luc2 reporter cell line activation curves in the presence of CEA-expressing MKN45 tumor cells [1]: 0.09 nM
EC50 [2]: 0.06 nM
B5: 2+1 4-1BB (20H4.9)/CEA(A5B7P) human IgG1 PGLALA, CEA with CHCL crossfab (bispecific antibody)
heavy 1: not shown
heavy 2: QVQLQQWGAGLLKPSETLSLTCAVYGGSFSGYYWSWIRQSPEKGLEWIGEINHGGYVTYNPSLESRVTISVDTSKNQFSLKLSSVTAADTAVYYCARDYGPGNYDWYFDLWGRGTLVTVSSASTKGPSVFPLAPSSKSTSGGTAALGCLVEDYFPEPVTVSWNSGALTSGVHTFPAVLQSSGLYSLSSVVTVPSSSLGTQTYICNVNHKPSNTKVDEKVEPKSCDKTHTCPPCPAPEAAGGPSVFLFPPKPKDTLMISRTPEVTCVVVDVSHEDPEVKFNWYVDGVEVHNAKTKPREEQYNSTYRVVSVLTVLHQDWLNGKEYKCKVSNKALGAPIEKTISKAKGQPREPQVCTLPPSRDELTKNQVSLSCAVKGFYPSDIAVEWESNGQPENNYKTTPPVLDSDGSFFLVSKLTVDKSRWQQGNVFSCSVMHEALHNHYTQKSLSLSPGK
light 1: not shown
light 2: QTVLSQSPAILSASPGEKVTMTCRASSSVTYIHWYQQKPGSSPKSWIYATSNLASGVPARFSGSGSGTSYSLTISRVEAEDAATYYCQHWSSKPPTFGGGTKLEIKSSASTKGPSVFPLAPSSKSTSGGTAALGCLVKDYFPEPVTVSWNSGALTSGVHTFPAVLQSSGLYSLSSVVTVPSSSLGTQTYICNVNHKPSNTKVDKKVEPKSC
notes: also called 4-1BB (20H4.9)×CEA (A5B7P) 2+1 CHCL crossfab; knob-CHCL crossfab
